In US20180319875A1 (ANN AND ROBERT H LURIE CHILDREN S HOSPITAL OF CHICAGO, published 2018):

Legend:
[1] = target: T1, Recombinant human Cripto-1 (rhCripto-1-1) (human, UniProt P13385 31-172, limits assumed); assay: SPR, average of two formats (Nodal to Cripto and Cripto to Nodal)
T1 construct: Bought protein
T1 sequence (looked up): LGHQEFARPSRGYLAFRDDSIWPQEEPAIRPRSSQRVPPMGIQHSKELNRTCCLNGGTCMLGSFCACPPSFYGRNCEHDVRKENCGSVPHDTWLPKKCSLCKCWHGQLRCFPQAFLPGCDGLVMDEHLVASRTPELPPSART

[2] = target: T1, Recombinant human Cripto-1 …; assay: SPR; the curves are labelled Nodal 10nM, 25nM, 50nM and 100nM, so Nodal is the injected molecule (the legend paragraph 37 words panel B as Cripto to Nodal)
[3] = target: T1, Recombinant human Cripto-1 …; assay: SPR; the curves are labelled hrCripto 4nM, 8nM, 16nM and 32nM, so Cripto-1 is the injected molecule (the legend paragraph 37 words panel A as Nodal to Cripto)

B1: Recombinant human Nodal protein (rhNodal, E. coli derived His238-Leu347 with an N-terminal Met) (ligand)
chain: MHHLPDRSQLCRKVKFQVDFNLIGWGSWIIYPKQYNAYRCEGECPNPVGEEFHPTNHAYIQSLLKRYQPHRVPSTCCAPVKTKPLSMLYVDNGRVLLDHHKDMIVEECGCL
notes: range 238-347; also called full length Nodal; rNodal
[1]
  Kd: ~4 nM
[2]
  Kd: 5.8 nM
[3]
  Kd: 3.7 nM
